From article PMC9482650, “Quantitative fragmentomics allow affinity mapping of interactomes” (Nature Communications, 2022)

T1: CARD11, Q9BXL7
T1 sequence (Q9BXL7 662-765, limits assumed, looked up): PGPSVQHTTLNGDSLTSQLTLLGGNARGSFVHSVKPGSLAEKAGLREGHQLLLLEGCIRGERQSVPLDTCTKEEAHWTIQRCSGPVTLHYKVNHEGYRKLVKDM

T2: DFNB31_1, Q9P202
T2 sequence (Q9P202 135-233, limits assumed, looked up): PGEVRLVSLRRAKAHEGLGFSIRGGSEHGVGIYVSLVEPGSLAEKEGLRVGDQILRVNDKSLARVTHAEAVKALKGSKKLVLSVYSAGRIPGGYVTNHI

T3: GRIP1_2, Q9Y3R0
T3 sequence (Q9Y3R0 145-248, limits assumed, looked up): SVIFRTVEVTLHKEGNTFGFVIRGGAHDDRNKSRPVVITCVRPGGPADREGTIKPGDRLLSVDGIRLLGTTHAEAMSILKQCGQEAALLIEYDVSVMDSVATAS

T4: GRIP1_7, Q9Y3R0
T4 sequence (Q9Y3R0 999-1096, limits assumed, looked up): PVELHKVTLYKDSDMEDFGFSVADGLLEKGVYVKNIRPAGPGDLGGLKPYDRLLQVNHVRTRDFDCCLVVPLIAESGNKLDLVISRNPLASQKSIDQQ

T5: LRRC7, Q96NW7
T5 sequence (Q96NW7 1440-1537, limits assumed, looked up): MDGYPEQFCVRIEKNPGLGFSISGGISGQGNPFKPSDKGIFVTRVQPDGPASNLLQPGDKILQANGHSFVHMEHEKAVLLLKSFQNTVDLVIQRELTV

T6: MPDZ_10, O75970
T6 sequence (O75970 1624-1722, limits assumed, looked up): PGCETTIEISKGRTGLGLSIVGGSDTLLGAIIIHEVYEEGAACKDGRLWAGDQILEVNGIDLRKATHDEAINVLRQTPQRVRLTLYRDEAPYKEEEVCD

T7: MPDZ_5, O75970
T7 sequence (O75970 695-796, limits assumed, looked up): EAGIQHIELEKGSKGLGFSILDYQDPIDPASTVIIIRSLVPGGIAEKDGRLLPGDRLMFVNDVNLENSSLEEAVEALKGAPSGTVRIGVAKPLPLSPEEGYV

T8: MPP6, Q9NZW5
T8 sequence (Q9NZW5 125-219, limits assumed, looked up): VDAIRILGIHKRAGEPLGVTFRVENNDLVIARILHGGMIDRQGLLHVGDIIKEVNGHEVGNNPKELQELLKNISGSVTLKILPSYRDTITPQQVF

T9: MPP7, Q5T2T1
T9 sequence (Q5T2T1 134-230, limits assumed, looked up): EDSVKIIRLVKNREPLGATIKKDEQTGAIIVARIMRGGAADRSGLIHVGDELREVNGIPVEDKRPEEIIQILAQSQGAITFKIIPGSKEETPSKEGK

T10: RADIL, Q96JH8
T10 sequence (Q96JH8 971-1071, limits assumed, looked up): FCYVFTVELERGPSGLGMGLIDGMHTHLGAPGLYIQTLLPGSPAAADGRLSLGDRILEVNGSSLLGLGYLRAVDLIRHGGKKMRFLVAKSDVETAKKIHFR

T11: RAPGEF6, Q8TEU7
T11 sequence (Q8TEU7 525-625, limits assumed, looked up): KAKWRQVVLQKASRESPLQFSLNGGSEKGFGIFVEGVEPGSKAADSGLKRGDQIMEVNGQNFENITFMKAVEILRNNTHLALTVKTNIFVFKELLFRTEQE


Experiments:
Experiment in all cases: holdup assay
Parameters in all cases: key: below the threshold = too weak to quantify, mostly under pKd 3.1 to 4
Conditions in all cases: plain residues with an end cap or a label only (N-terminal biotin on a linker: ado-ado)
CARD11, Q9BXL7 = target: T1, CARD11, Q9BXL7
DFNB31_1, Q9P202 = target: T2, DFNB31_1, Q9P202
DLG4_2, P78352 = target: DLG4_2, P78352
DLG4_2, P78352, sequence (P78352 155-259): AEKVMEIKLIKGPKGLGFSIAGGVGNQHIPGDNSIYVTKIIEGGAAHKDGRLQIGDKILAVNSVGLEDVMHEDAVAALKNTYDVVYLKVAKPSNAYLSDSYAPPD

FRMPD2_2, Q68DX3 = target: FRMPD2_2, Q68DX3
FRMPD2_2, Q68DX3, sequence (Q68DX3 944-1038): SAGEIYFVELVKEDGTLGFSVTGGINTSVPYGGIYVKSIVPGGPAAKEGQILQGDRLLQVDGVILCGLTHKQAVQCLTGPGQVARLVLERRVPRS

FRMPD3, Q5JV73 = target: FRMPD3, Q5JV73
FRMPD3, Q5JV73, sequence (Q5JV73 12-100): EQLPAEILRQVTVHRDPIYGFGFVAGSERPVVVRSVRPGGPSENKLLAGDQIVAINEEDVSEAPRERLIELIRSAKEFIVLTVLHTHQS

FRMPD4, Q14CM0 = target: FRMPD4, Q14CM0
FRMPD4, Q14CM0, sequence (Q14CM0 67-160): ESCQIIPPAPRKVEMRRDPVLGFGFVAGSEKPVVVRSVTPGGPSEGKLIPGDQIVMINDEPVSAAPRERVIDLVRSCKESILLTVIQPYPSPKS

GOPC, Q9HD26 = target: GOPC, Q9HD26
GRIP1_2, Q9Y3R0 = target: T3, GRIP1_2, Q9Y3R0
GRIP1_7, Q9Y3R0 = target: T4, GRIP1_7, Q9Y3R0
GRIP2_6, Q9C0E4 = target: GRIP2_6, Q9C0E4
GRIP2_6, Q9C0E4, sequence (Q9C0E4 648-740): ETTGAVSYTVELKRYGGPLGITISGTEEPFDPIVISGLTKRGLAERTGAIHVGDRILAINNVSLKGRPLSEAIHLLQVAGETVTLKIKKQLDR

HTRA2, O43464 = target: HTRA2, O43464
HTRA2, O43464, sequence (O43464 355-458): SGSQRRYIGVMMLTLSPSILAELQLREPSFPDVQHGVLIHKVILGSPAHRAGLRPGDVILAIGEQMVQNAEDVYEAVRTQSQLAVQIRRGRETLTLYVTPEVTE

IL16_1, Q14005 = target: IL16_1, Q14005
IL16_1, Q14005, sequence (Q14005 210-306): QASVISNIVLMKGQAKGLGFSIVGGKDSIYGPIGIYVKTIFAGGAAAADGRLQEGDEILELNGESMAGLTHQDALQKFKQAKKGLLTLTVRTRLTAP

Inadl_2, Q8NI35 = target: Inadl_2, Q8NI35
Inadl_2, Q8NI35, sequence (Q8NI35 238-335): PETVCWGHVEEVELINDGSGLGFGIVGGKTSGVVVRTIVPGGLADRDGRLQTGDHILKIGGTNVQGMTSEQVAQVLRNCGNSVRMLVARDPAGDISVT

Inadl_4, Q8NI35 = target: Inadl_4, Q8NI35
Inadl_4, Q8NI35, sequence (Q8NI35 547-651): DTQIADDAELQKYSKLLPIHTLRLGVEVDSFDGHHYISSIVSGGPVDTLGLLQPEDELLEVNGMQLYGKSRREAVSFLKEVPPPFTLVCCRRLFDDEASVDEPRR

LDB3, O75112 = target: LDB3, O75112
LDB3, O75112, sequence (O75112 1-94): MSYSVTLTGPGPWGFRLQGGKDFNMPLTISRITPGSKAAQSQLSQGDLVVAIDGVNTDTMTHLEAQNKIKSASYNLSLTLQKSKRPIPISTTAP

LRRC7, Q96NW7 = target: T5, LRRC7, Q96NW7
MAGI2_5, Q86UL8 = target: MAGI2_5, Q86UL8
MAGI2_5, Q86UL8, sequence (Q86UL8 915-1017): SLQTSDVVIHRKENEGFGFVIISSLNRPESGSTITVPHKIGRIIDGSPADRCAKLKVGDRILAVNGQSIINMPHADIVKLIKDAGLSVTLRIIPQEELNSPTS

MAGI3_2, Q5TCQ9 = target: MAGI3_2, Q5TCQ9
MAGI3_2, Q5TCQ9, sequence (Q5TCQ9 398-503): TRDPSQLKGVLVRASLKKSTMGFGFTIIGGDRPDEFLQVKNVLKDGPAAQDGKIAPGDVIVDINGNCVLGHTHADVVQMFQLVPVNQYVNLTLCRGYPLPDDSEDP

MAST1, Q9Y2H9 = target: MAST1, Q9Y2H9
MAST1, Q9Y2H9, sequence (Q9Y2H9 962-1065): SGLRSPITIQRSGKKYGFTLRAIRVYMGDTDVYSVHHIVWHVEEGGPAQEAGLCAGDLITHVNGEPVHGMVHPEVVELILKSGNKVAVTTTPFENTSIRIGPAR

MPDZ_10, O75970 = target: T6, MPDZ_10, O75970
MPDZ_5, O75970 = target: T7, MPDZ_5, O75970
MPP6, Q9NZW5 = target: T8, MPP6, Q9NZW5
MPP7, Q5T2T1 = target: T9, MPP7, Q5T2T1
NHERF4_1, Q86UT5-2 = target: NHERF4_1, Q86UT5-2
NHERF4_1, Q86UT5-2, sequence (Q86UT5 other isoform, or with tags, fused parts or gaps): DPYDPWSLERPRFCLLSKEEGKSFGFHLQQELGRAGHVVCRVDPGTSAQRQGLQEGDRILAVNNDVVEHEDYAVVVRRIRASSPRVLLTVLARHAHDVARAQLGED

RADIL, Q96JH8 = target: T10, RADIL, Q96JH8
RAPGEF6, Q8TEU7 = target: T11, RAPGEF6, Q8TEU7

Binder | pKd (CARD11, Q9BXL7) | pKd (DFNB31_1, Q9P202) | pKd (DLG4_2, P78352) | pKd (FRMPD2_2, Q68DX3) | pKd (FRMPD3, Q5JV73) | pKd (FRMPD4, Q14CM0) | pKd (GOPC, Q9HD26) | pKd (GRIP1_2, Q9Y3R0) | pKd (GRIP1_7, Q9Y3R0) | pKd (GRIP2_6, Q9C0E4) | pKd (HTRA2, O43464) | pKd (IL16_1, Q14005) | pKd (Inadl_2, Q8NI35) | pKd (Inadl_4, Q8NI35) | pKd (LDB3, O75112) | pKd (LRRC7, Q96NW7) | pKd (MAGI2_5, Q86UL8) | pKd (MAGI3_2, Q5TCQ9) | pKd (MAST1, Q9Y2H9) | pKd (MPDZ_10, O75970) | also measured
EALLQMESVA [CAVIN3, Q969G5] | below the threshold | below the threshold | below the threshold | below the threshold | below the threshold | below the threshold | below the threshold | below the threshold | below the threshold | below the threshold | below the threshold | below the threshold | below the threshold | below the threshold | below the threshold | below the threshold | below the threshold | below the threshold | 3.86 | below the threshold | pKd (MPDZ_5, O75970): below the threshold; pKd (MPP6, Q9NZW5): below the threshold; pKd (MPP7, Q5T2T1): below the threshold; pKd (NHERF4_1, Q86UT5-2): 3.59; pKd (RADIL, Q96JH8): below the threshold; pKd (RAPGEF6, Q8TEU7): below the threshold
VKPQVSESKL [ACOT8, O14734] | below the threshold | 4.29 | below the threshold | below the threshold | below the threshold | 3.8 | 3.51 | below the threshold | below the threshold | below the threshold | below the threshold | below the threshold | below the threshold | below the threshold | 3.6 | below the threshold | below the threshold | 3.59 | 4.77 | below the threshold | pKd (MPDZ_5, O75970): below the threshold; pKd (MPP6, Q9NZW5): below the threshold; pKd (MPP7, Q5T2T1): below the threshold; pKd (NHERF4_1, Q86UT5-2): 3.78; pKd (RADIL, Q96JH8): below the threshold; pKd (RAPGEF6, Q8TEU7): below the threshold
PRAEAEDSFL [PDGFRB, P09619] | below the threshold | 3.62 | 3.48 | 3.52 | 3.56 | 4.57 | below the threshold | below the threshold | below the threshold | below the threshold | below the threshold | below the threshold | below the threshold | below the threshold | 3.67 | 3.92 | below the threshold | below the threshold | 3.93 | below the threshold | pKd (MPDZ_5, O75970): below the threshold; pKd (MPP6, Q9NZW5): 3.93; pKd (MPP7, Q5T2T1): below the threshold; pKd (NHERF4_1, Q86UT5-2): 3.89; pKd (RADIL, Q96JH8): below the threshold; pKd (RAPGEF6, Q8TEU7): below the threshold
FNSYSLTGYV [CLDN2, P57739] | below the threshold | below the threshold | 3.56 | below the threshold | below the threshold | below the threshold | 3.66 | below the threshold | below the threshold | below the threshold | 4.48 | 3.8 | below the threshold | below the threshold | below the threshold | below the threshold | below the threshold | 4.21 | 3.94 | below the threshold | pKd (MPDZ_5, O75970): below the threshold; pKd (MPP6, Q9NZW5): below the threshold; pKd (MPP7, Q5T2T1): below the threshold; pKd (NHERF4_1, Q86UT5-2): 3.9; pKd (RADIL, Q96JH8): 4.99; pKd (RAPGEF6, Q8TEU7): below the threshold
